This is an account of results in patent US20150239980A1 (NEOTOPE BOSCIENCES, published 2015).

Substitutions are numbered along the chain they refer to.

In general, IC50 refers to the concentration that inhibits the measured activity by half.

In assay [1] the target is T1, recombinant hMCAM-His (human, UniProt P43121 24-559).
T1 construct: not shown: His tag
T1 chain: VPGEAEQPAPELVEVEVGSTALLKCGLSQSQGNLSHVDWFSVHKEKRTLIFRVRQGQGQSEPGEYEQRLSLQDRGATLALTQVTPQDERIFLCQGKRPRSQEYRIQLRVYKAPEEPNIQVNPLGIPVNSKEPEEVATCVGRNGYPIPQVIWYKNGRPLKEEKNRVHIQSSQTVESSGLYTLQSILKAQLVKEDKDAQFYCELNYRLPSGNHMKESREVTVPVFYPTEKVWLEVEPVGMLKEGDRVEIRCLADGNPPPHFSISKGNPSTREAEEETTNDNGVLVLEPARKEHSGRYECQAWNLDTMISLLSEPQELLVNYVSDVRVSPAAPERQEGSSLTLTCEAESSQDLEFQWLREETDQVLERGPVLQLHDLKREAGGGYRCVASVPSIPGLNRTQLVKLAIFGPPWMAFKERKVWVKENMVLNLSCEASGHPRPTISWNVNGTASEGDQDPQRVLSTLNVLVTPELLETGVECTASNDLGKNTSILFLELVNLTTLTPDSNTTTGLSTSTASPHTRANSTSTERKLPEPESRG
The experiment in a line: ForteBio Octet Red, hMCAM-His analyte; Forte column 2; vs rodent 2107. Here is the method: (§1) The affinities were measured using the ForteBio Octet Red. Anti-human Fc sensors were used to capture the humanized antibodies, and several concentrations of hMCAMHis analyte were used to determine the affinity using a 1:1 fitting model.

The target of assay [2] is T2, human MCAM (melanoma cell adhesion molecule) expressed on transfected CHO cells (human, UniProt P43121 24-646).
T2 construct: also called hMCAM; CD146
T2 chain: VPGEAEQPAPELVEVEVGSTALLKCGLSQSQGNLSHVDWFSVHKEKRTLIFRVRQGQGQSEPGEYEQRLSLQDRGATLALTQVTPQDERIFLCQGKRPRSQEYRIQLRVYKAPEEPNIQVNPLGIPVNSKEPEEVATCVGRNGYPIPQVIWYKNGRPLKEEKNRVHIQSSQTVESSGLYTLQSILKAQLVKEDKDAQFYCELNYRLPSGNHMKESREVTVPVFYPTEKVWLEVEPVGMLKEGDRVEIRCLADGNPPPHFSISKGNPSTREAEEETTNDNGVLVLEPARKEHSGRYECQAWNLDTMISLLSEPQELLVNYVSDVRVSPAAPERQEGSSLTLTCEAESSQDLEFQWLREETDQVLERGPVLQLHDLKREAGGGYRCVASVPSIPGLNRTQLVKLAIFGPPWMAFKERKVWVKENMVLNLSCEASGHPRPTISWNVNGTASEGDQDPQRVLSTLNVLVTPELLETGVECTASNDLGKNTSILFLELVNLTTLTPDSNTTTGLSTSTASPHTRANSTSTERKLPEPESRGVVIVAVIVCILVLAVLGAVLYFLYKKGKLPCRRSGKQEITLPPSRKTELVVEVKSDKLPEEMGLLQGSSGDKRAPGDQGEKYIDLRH
Nature of the assay: flow cytometry, human MCAM CHO cells preincubated with antibody, competitor recombinant human laminin 411 at 20 ug/ml. Here is the method:
The 87 independent mouse fusion clones and 26 independent rat fusion clones described in Example 10 above as being capable of (i) binding to human MCAM, and (ii) blocking the interaction between human MCAM and the α-4 chain of laminin were further characterized as follows. First, IC50 quantitation for the ability of the monoclonal antibody to block the binding of human MCAM to the α-4 chain of laminin was determined as follows. CHO cells expressing human MCAM were incubated with an anti-human MCAM antibody (at various concentrations) for 30 minutes at 4 degrees Celsius. […] Unbound laminin was then washed away, and the laminin bound to the surface of the cells was detected with fluorescently labeled anti-laminin antibodies. After washing, the amount of laminin bound to the surface was detected by flow cytometry, and IC50s were calculated based on the mean fluorescent intensity.
These six anti-MCAM monoclonal antibody clones are herein referred to as (i) the mouse anti-human MCAM monoclonal clones 1174.1.3, 1414.1.2, 1415.1.1, and 1749.1.3, and (ii) the rat anti-human MCAM monoclonal antibody clones 2120.4.19 and 2107.4.10. […] As such, each of these specific monoclonal antibodies was very capable of binding to human MCAM and inhibiting the interaction of cell-expressed human MCAM with its α-4 laminin binding ligand.

The target of assay [3] is T1, recombinant hMCAM-His. The experiment in a line: competitive ELISA on hMCAM-His, competitor biotinylated rodent or chimeric 2107; Expt. #1; vs rodent 2107. The method, then: (§2) ELISA plates were coated with recombinant hMCAM-His, and blocked with casein buffer to prevent non-specific binding. Biotinylated rodent or chimeric antibody was added at a subsaturating concentration, in the presence or absence of 3× increasing concentrations of unlabeled competitor (humanized antibody, rodent, or chimeric). After washing to remove unbound antibody, streptavidin HRP was added to allow detection of the biotinylated antibody. The ELISA was developed with TMB substrate and the OD450 was measured. The IC50 of the unlabeled competitor was determined using the GraphPad Prism5 software.
In general terms: An ELISA detects its analyte on a solid surface through an enzyme-linked reagent.

The target in assay [4] is T1, recombinant hMCAM-His. The experiment in a line: competitive ELISA on hMCAM-His, competitor biotinylated rodent or chimeric 2107; Expt. #2; vs rodent 2107. The method, then: as §2
The target of assay [5] is T1, recombinant hMCAM-His. The experiment in a line: ForteBio Octet Red, hMCAM-His analyte; Expt. #2; vs rodent 2107. The method, then: as §1
In general terms: In BLI a coated tip is dipped into the sample, and binding shifts an interference pattern.

Assay [6] deals with T1, recombinant hMCAM-His. The experiment in a line: ForteBio Octet Red, hMCAM-His analyte; Forte column 1; vs rodent 2107. Here is the method:
as §1

Assay [7] addresses T1, recombinant hMCAM-His. Nature of the assay: ForteBio Octet Red, hMCAM-His analyte; Expt. #1; vs rodent 2107. The method, then:
as §1

For assay [8], the target named is T2, human MCAM (melanoma cell adhesion …). The experiment in a line: laminin/FACS on hMCAM CHO cells, competitor laminin 411; Expt#1; vs rodent 2107. Here is the method:
(§3) Following incubation for 30-45 minutes, the cells were washed and anti-laminin conjugated to AF650 (NovusBio) was added to detect the bound laminin. The cells were run on a flow cytometer to measure the laminin binding signal.

In assay [9] the target is T1, recombinant hMCAM-His. The experiment in a line: competitive ELISA on hMCAM-His, competitor biotinylated rodent or chimeric 2107; vs rodent 2107. Here is the method:
as §2

Assay [10] addresses T1, recombinant hMCAM-His. The experiment in a line: competitive ELISA on hMCAM-His, competitor biotinylated rodent or chimeric 1749; vs rodent 1749.
The target of assay [11] is T2, human MCAM (melanoma cell adhesion …). The experiment in a line: summary of laminin blocking assay on hMCAM CHO cells, competitor laminin 411; vs rodent 1749. Here is the method:
as §3

Assay [12] addresses T1, recombinant hMCAM-His. Nature of the assay: summary of ForteBio and competitive ELISA on hMCAM-His; vs rodent 1749. The method, then: as §2, §1
Assay [13] addresses T1, recombinant hMCAM-His. The experiment in a line: competitive ELISA on hMCAM-His, competitor biotinylated rodent or chimeric 1749; Expt. #1; vs rodent 1749. Here is the method: as §2
Assay [14] concerns the target T1, recombinant hMCAM-His. The experiment in a line: ForteBio Octet Red, hMCAM-His analyte; Expt. #1; vs rodent 1749. Here is the method: as §1
Assay [15] concerns the target T1, recombinant hMCAM-His. The experiment in a line: competitive ELISA on hMCAM-His, competitor biotinylated rodent or chimeric 1749; Expt. #2; vs rodent 1749. The method, then: as §2
For assay [16], the target named is T2, human MCAM (melanoma cell adhesion …). Nature of the assay: laminin/FACS blocking assay, % inhibition of laminin 411 binding to hMCAM-expressing CHO cells against antibody concentration; blocked ligand: laminin 411. The method, then:
as §3

In assay [17] the target is T1, recombinant hMCAM-His. The experiment in a line: ForteBio Octet Red, hMCAM-His analyte; Forte column 1; vs rodent 1749. Here is the method:
as §1

For assay [18], the target named is T2, human MCAM (melanoma cell adhesion …). Nature of the assay: laminin/FACS on hMCAM CHO cells, competitor laminin 411; Expt#2; vs rodent 1749. The method, then:
as §3

The target of assay [19] is T1, recombinant hMCAM-His. The experiment in a line: ForteBio Octet Red, hMCAM-His analyte; Expt. #2; vs rodent 1749. The method, then: as §1
The target of assay [20] is T2, human MCAM (melanoma cell adhesion …). The experiment in a line: laminin/FACS on hMCAM CHO cells, competitor laminin 411; Expt#1; vs rodent 1749. The method, then:
as §3

The target of assay [21] is T1, recombinant hMCAM-His. Nature of the assay: summary of ForteBio, hMCAM-His; vs rodent 2120. The method, then: as §1
Assay [22] deals with T1, recombinant hMCAM-His. The experiment in a line: ForteBio Octet Red, hMCAM-His analyte; Expt. #1; vs rodent 2120. Here is the method: as §1
The target in assay [23] is T1, recombinant hMCAM-His. Nature of the assay: competitive ELISA on hMCAM-His, competitor biotinylated rodent or chimeric 2120; Expt. #1; vs rodent 2120. The method, then:
as §2

B1: rat anti-human MCAM monoclonal antibody clone 2107.4.10 (antibody, V domains shown)
VH: QVQLKESGPGLVQSSQTLSLTCTVSGFSLTSNGVSWVRQPPGKGLEWIAAISSGGSTYYNSAFKSRLSISRNTSKSQVLLKMNSLQTEDTGMYFCARHRPFYFDYWGQGVMVTVSS
VL: DIQVTQSPSLLSASVGDRVTLNCKGSQNIYKSLAWFRLKRGEAPKLLIYDANSLQTGIPSRFSGSGSGTDFTLTITSLQPEDVATYFCQQYYSGYTFGAGTKLELK
notes: rat hybridoma antibody; elsewhere '83 or 84'); also called rodent 2107; murine 2107.4.10.18 anti-MCAM antibody
In the case of B1, the “fold over rodent (Forte affinity)” value with recombinant hMCAM-His [1], with recombinant hMCAM-His [5], with recombinant hMCAM-His [6] and with recombinant hMCAM-His [7] was 1 fold in each case. Also, the IC50 in assay [2] was 0.29 µg/mL. Also, the “fold over rodent (competitive ELISA)” value with recombinant hMCAM-His [3], with recombinant hMCAM-His [4] and in the assay with recombinant hMCAM-His [9] was 1 fold throughout. For the same molecule, in assay [8], the “fold over rodent (blocking, laminin/FACS)” value is 1 fold.

B2: h1749VH2 + h1749VL2 (antibody, human IgG1, V domains shown)
VH: EVQLVESGGGLVQPGGSLRLSCAASGFTFSSYIMSWVRQAPGKRLEWVATISSGGSSTYYPDSVKGRFTISRDNAKNSLYLQMNSLRAEDTAVYYCTRDDDYDVKVFAYWGQGTMVTVSS
VL: DIVMTQSPDSLAVSLGERATINCKSSRSLLNSRIRKNYLAWYQQKPGQPPKLLIYWASTRESGVPDRFTGSGSGTDFTLTISSLQAEDVAVYYCKQSYNLLTFGQGTKVEIK
notes: also called humanized 1749 conservative VH and VL
Turning to B2, the entries for the “fold over rodent (competitive ELISA)” value with recombinant hMCAM-His [10], with recombinant hMCAM-His [13] and with recombinant hMCAM-His [15] were 1.1 fold, 1.28 fold and 1.46 fold, respectively. The “fold reduction in potency compared to the rodent” value in assay [11] was less than 2 fold. Also, the “fold reduction in affinity compared to the rodent” value in the assay with recombinant hMCAM-His [12] is less than 2 fold. In addition, the “fold over rodent (Forte affinity)” value with recombinant hMCAM-His [14] is 0.73 fold; with recombinant hMCAM-His [17], 0.7 fold; in the assay with recombinant hMCAM-His [19], 1.09 fold. Further, the “IC50 (read off the curve)” value in assay [16] is approximately 0.4 µg/mL. Also, the “fold over rodent (blocking, laminin/FACS)” value in assay [18] amounted to 1.7 fold; in [20], 1.8 fold.

B3: h1749VH1 + h1749VL1 (antibody, human IgG1, V domains shown)
VH: B2 VH with R44G
VL: B2 VL with T69S
notes: also called humanized 1749 standard VH and VL
On to B3, for which the “fold over rodent (competitive ELISA)” value is 1 fold with recombinant hMCAM-His [10], 1.26 fold in the assay with recombinant hMCAM-His [13] and 1.35 fold with recombinant hMCAM-His [15]. Moreover, the “fold reduction in potency compared to the rodent” value in assay [11] was less than 2 fold. In the assay with recombinant hMCAM-His [12], the “fold reduction in affinity compared to the rodent” value is less than 2 fold. In addition, the “fold over rodent (Forte affinity)” value is 2.5 fold in the assay with recombinant hMCAM-His [14], 2.5 fold with recombinant hMCAM-His [17] and 2.41 fold with recombinant hMCAM-His [19]. Moreover, the “fold over rodent (blocking, laminin/FACS)” value in assay [18] and in assay [20] was 1.4 fold each time.

B4: h2120_VH3 + h2120_VL3 (antibody, human IgG1, V domains shown)
VH: QVTLKESGPVLVKPTETLTLTCTVSGFSLTSSGVSWVRQPPGKALEWIAAISSGGTTYYNSAFKSRLTISRDTSKSQVVLTMTNMDPVDTATYYCARRYGYGWYFDFWGQGTLVTVSS
VL: DIQMTQSPSSLSASVGDRVTINCKASQNIYNSLAWYQQKPGKAPKVLIFNANSLQTGIPSRFSGSGSGTDFTLTISSLQPEDFATYYCQQFYSGYTFGQGTKLEIK
As to B4, the “fold reduction in affinity as measured by ForteBio” value with recombinant hMCAM-His [21] is more than 5 fold. Moreover, the “fold over rodent (Forte affinity)” value in the assay with recombinant hMCAM-His [22] was 16.1 fold. Further, in the assay with recombinant hMCAM-His [23], the “fold over rodent (competitive ELISA)” value is 3.47 fold.
